This passage reports protein stability index results from the supplement of paper PMC10567573.

B1: CD207 (parent)
chain: MTVEKEAPDAHFTVDKQNISLWPR
B2: TRIB1 (parent)
chain: SYVRSRKRLREEEAARLFKQIVSA
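Further: lentivirally expressed fusions sorted by FACS into six bins by GFP to DsRed ratio, PSI derived from sequencing read proportions per bin multiplied by bin number.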

In one data set the parent is B1. Briefly: protein stability index of a GFP-peptide fusion (GPS, HEK-293T) (PSI 1-6); higher = more stable. To be noted: c terminus: a fixed tail appended.
For the variant MTVEKEAPDAHFTVDKENISLWPR [Q17E], the protein stability index was found to be 3.26.
On the same count and under the same terms, for MTVEKEAPDAHFTVDKMNISLWPR [Q17M] the value was 2.15; for MTVEKEAPDAHFTVDKTNISLWPR [Q17T], 3.14.
As to MTVEKEAPDAHFTVDKHNISLWPR [Q17H], the protein stability index was 3.05.
On to MTVEKEAPDAHFTVDKSNISLWPR [Q17S], for which the protein stability index came to 2.31.
For the variant MTVEKEAPDAHFTVDKFNISLWPR [Q17F], the protein stability index was 1.89.
On to MTVEKEAPDAHFTVDKLNISLWPR [Q17L], for which the protein stability index came out at 2.64.
Take MTVEKEAPDAHFTVDKCNISLWPR [Q17C]: the protein stability index worked out at 2.8.
With MTVEKEAPDAHFTVDKANISLWPR [Q17A], the protein stability index is 3.66.
With MTVEKEAPDAHFTVDKVNISLWPR [Q17V], the protein stability index was determined as 2.39.
For MTVEKEAPDAHFTVDKYNISLWPR [Q17Y], the protein stability index was found to be 1.94.
Regarding MTVEKEAPDAHFTVDKPNISLWPR [Q17P], the protein stability index is 3.21.
As for MTVEKEAPDAHFTVDKDNISLWPR [Q17D], the protein stability index amounted to 3.73.
As to MTVEKEAPDAHFTVDKGNISLWPR [Q17G], the protein stability index is 3.38.
Take MTVEKEAPDAHFTVDKWNISLWPR [Q17W]: the protein stability index stood at 1.56.
On the same count and under the same terms, the figure for MTVEKEAPDAHFTVDKRNISLWPR [Q17R] is 2.76; for MTVEKEAPDAHFTVDKQNISLHPR [W22H] it is 4.21.
MTVEKEAPDAHFTVDKQNISLNPR [W22N]: the protein stability index was 4.4.
On the same count and under the same terms, the figure for MTVEKEAPDAHFTVDKQNISLDPR [W22D] is 4.85; for MTVEKEAPDAHFTVDKQNISLAPR [W22A] it is 4.63; for MTVEKEAPDAHFTVDKQNISLIPR [W22I] it is 4.73.
On the same count and under the same terms, for MTVEKEAPDAHFTVDKQNISLGPR [W22G] the value was 4.35; for MTVEKEAPDAHFTVDKQNISLSPR [W22S], 4.69.
For MTVEKEAPDAHFTVDKQNISLFPR [W22F], the protein stability index amounted to 3.91.
For the variant MTVEKEAPDAHFTVDKQNISLPPR [W22P], the protein stability index is 4.64.
The same measure, in the same setting: the figure for MTVEKEAPDAHFTVDKQNISLMPR [W22M] is 4.19; for MTVEKEAPDAHFTVDKQNISLQPR [W22Q] it is 4.29.
With MTVEKEAPDAHFTVDKQNISLEPR [W22E], the protein stability index turned out to be 5.08.
In the case of MTVEKEAPDAHFTVDKQNISLYPR [W22Y], the protein stability index was 3.83.
In the case of MTVEKEAPDAHFTVDKQNISLVPR [W22V], the protein stability index was determined as 4.32.
Same read-out and setting: for MTVEKEAPDAHFTVDKQNISLLPR [W22L] the value was 4.42.
As for MTVEKEAPDAHFTVDKQNISLTPR [W22T], the protein stability index was found to be 4.34.
With MTVEKEAPDAHFTVDKQNISLCPR [W22C], the protein stability index is 4.08.
As to MTVEKEAPDAHFTVDKQNISLRPR [W22R], the protein stability index was determined as 4.1.
On to MTVEKEAPDAHFTVDKQNISLKPR [W22K], for which the protein stability index was found to be 4.99.
Consider MTVEKEAPDAHFTVDSQNISLWPR [K16S], for which the protein stability index turned out to be 3.79.
Regarding MTVEKEAPDAHFTVDYQNISLWPR [K16Y], the protein stability index came to 2.83.
For MTVEKEAPDAHFTVDTQNISLWPR [K16T], the protein stability index was 3.18.
As for MTVEKEAPDAHFTVDWQNISLWPR [K16W], the protein stability index came to 2.
On the same count and under the same terms, the figure for MTVEKEAPDAHFTVDQQNISLWPR [K16Q] is 3.01; for MTVEKEAPDAHFTVDRQNISLWPR [K16R] it is 3.26; for MTVEKEAPDAHFTVDVQNISLWPR [K16V] it is 2.93.
As for MTVEKEAPDAHFTVDPQNISLWPR [K16P], the protein stability index came to 3.26.
Turning to MTVEKEAPDAHFTVDKQNASLWPR [I19A], the protein stability index was determined as 4.25.
With MTVEKEAPDAHFTVDKQNYSLWPR [I19Y], the protein stability index amounted to 3.41.
With MTVEKEAPDAHFTVDKQNMSLWPR [I19M], the protein stability index was found to be 3.67.
For the variant MTVEKEAPDAHFTVDKQNNSLWPR [I19N], the protein stability index was determined as 4.39.
Consider MTVEKEAPDAHFTVDKQNHSLWPR [I19H], for which the protein stability index worked out at 4.29.
Same read-out and setting: for MTVEKEAPDAHFTVDKQNRSLWPR [I19R] the value was 3.99.
As to MTVEKEAPDAHFTVDKQNESLWPR [I19E], the protein stability index is 4.47.
The same measure, in the same setting: the figure for MTVEKEAPDAHFTVDKQNPSLWPR [I19P] is 4; for MTVEKEAPDAHFTVDKQNCSLWPR [I19C] it is 3.76; for MTVEKEAPDAHFTVDKQNKSLWPR [I19K] it is 4.35.
Regarding MTVEKEAPDAHFTVDKQNLSLWPR [I19L], the protein stability index stood at 3.35.
MTVEKEAPDAHFTVDKQNSSLWPR [I19S]: the protein stability index was 3.45.
The same measure, in the same setting: for MTVEKEAPDAHFTVDKQNFSLWPR [I19F] the value was 4.08.
Turning to MTVEKEAPDAHFTVDKQNQSLWPR [I19Q], the protein stability index worked out at 3.84.
Same read-out and setting: for MTVEKEAPDAHFTVDKQNVSLWPR [I19V] the value was 3.98; for MTVEKEAPDAHFTVDKQNDSLWPR [I19D], 4.22; for MTVEKEAPDAHFTVDKQNGSLWPR [I19G], 3.13.
Turning to MTVEKEAPDAHFTVDKQNTSLWPR [I19T], the protein stability index came to 3.79.

Variants of B2 are the subject of a further data set. Described as above. To be noted: c terminus: a fixed tail appended.
As for SYFRSRKRLREEEAARLFKQIVSA [V3F], the protein stability index stood at 2.64.
Regarding SYARSRKRLREEEAARLFKQIVSA [V3A], the protein stability index was 1.68.
Regarding SYHRSRKRLREEEAARLFKQIVSA [V3H], the protein stability index was 1.22.
On to SYERSRKRLREEEAARLFKQIVSA [V3E], for which the protein stability index was found to be 1.83.
In the case of SYGRSRKRLREEEAARLFKQIVSA [V3G], the protein stability index came to 1.3.
For SYCRSRKRLREEEAARLFKQIVSA [V3C], the protein stability index came out at 1.71.
For the variant SYDRSRKRLREEEAARLFKQIVSA [V3D], the protein stability index was determined as 2.05.
Still for that read-out and setting: for SSVRSRKRLREEEAARLFKQIVSA [Y2S] the value was 1.9; for SMVRSRKRLREEEAARLFKQIVSA [Y2M], 2.91.
Still for that read-out and setting: the figure for SVVRSRKRLREEEAARLFKQIVSA [Y2V] is 2.33.
Turning to SHVRSRKRLREEEAARLFKQIVSA [Y2H], the protein stability index was determined as 2.58.
On the same count and under the same terms, the figure for SGVRSRKRLREEEAARLFKQIVSA [Y2G] is 1.83.
Consider SWVRSRKRLREEEAARLFKQIVSA [Y2W], for which the protein stability index was determined as 1.25.
Take SNVRSRKRLREEEAARLFKQIVSA [Y2N]: the protein stability index was 2.83.
For the variant SFVRSRKRLREEEAARLFKQIVSA [Y2F], the protein stability index turned out to be 1.54.
On the same count and under the same terms, the figure for SAVRSRKRLREEEAARLFKQIVSA [Y2A] is 2.5; for SKVRSRKRLREEEAARLFKQIVSA [Y2K] it is 2.14; for SRVRSRKRLREEEAARLFKQIVSA [Y2R] it is 2.17.
For the variant STVRSRKRLREEEAARLFKQIVSA [Y2T], the protein stability index is 2.38.
On to SQVRSRKRLREEEAARLFKQIVSA [Y2Q], for which the protein stability index is 2.48.
In the case of SIVRSRKRLREEEAARLFKQIVSA [Y2I], the protein stability index is 1.78.
Same read-out and setting: for AYVRSRKRLREEEAARLFKQIVSA [S1A] the value was 2.07; for PYVRSRKRLREEEAARLFKQIVSA [S1P], 2.1.
FYVRSRKRLREEEAARLFKQIVSA [S1F]: the protein stability index worked out at 1.45.
As for RYVRSRKRLREEEAARLFKQIVSA [S1R], the protein stability index was found to be 1.95.
Regarding YYVRSRKRLREEEAARLFKQIVSA [S1Y], the protein stability index amounted to 1.41.
Consider EYVRSRKRLREEEAARLFKQIVSA [S1E], for which the protein stability index was determined as 1.5.
With NYVRSRKRLREEEAARLFKQIVSA [S1N], the protein stability index stood at 2.2.
Still for that read-out and setting: the figure for KYVRSRKRLREEEAARLFKQIVSA [S1K] is 2.98; for DYVRSRKRLREEEAARLFKQIVSA [S1D] it is 1.88; for MYVRSRKRLREEEAARLFKQIVSA [S1M] it is 1.82.
For VYVRSRKRLREEEAARLFKQIVSA [S1V], the protein stability index came to 1.65.
For QYVRSRKRLREEEAARLFKQIVSA [S1Q], the protein stability index came out at 1.58.
